Test results published in article PMC10980815, “Cell surface patching via CXCR4-targeted nanothreads for cancer metastasis inhibition” (Nature Communications, 2024).
Ends that are not written are not given here. HPMA copolymer = HPMA copolymer made by RAFT copolymerization of HPMA with N-(3-aminopropyl)methacrylamide (APMA), bearing maleimide groups for grafting

Assays:
ζ-potential (Zetasizer) = format: physicochemical; conditions: Malvern Zetasizer Nano ZS90; mean ± SD
Experimental: (§1) The average molecular weight (Mw) and polydispersity (PDI) of the HPMA copolymer conjugates were determined by gel permeation chromatography (GPC) on an AKTA purifier equipment with a Superose 6 10/300 GL analytical column (GE Healthcare, USA) and a differential refraction detector (KNAUER, 2300, Germany). Hydrodynamic sizes and zeta potentials were determined using a Malvern Zetasizer Nano ZS90 equipment (Malvern Instruments Ltd, Malvern, UK). The contents of BS, CM1, and CM2 were determined using a bicinchoninic acid (BCA) protein assay. The PS concentration was determined by ultraviolet-visible (UV-Vis) spectroscopy at its characteristic absorbance peak (660 nm).

[1] = test system: orthotopic 4T1 breast tumors; assay: Tumor accumulation of Cy5-labeled nanothreads (IVIS imaging, excised tumors); format: in vivo, female BALB/c mice
Experimental: For in vitro studies, 4T1 cells (2 × 10^5 cells) were seeded on coverslips (NEST Biotechnology) for attachment. Subsequently, the cells were treated with i) Cy5-labeled P-CM1 (P-CM1-Cy5) for 1 h, followed by incubation in cell culture medium for an additional 1 h, ii) Cy5-labeled P-BS-CM1 (P-BS-CM1-Cy5) for 1 h, followed by incubation in cell culture medium for an additional 1 h, or iii) P-BS-CM1-Cy5 for 1 h, followed by Cy3-labeled P-CM2 (P-CM2-Cy3) for an additional 1 h (5 nM Cy5 and 5 nM Cy3 equivalence), respectively. Following the treatments, cells were washed three times with PBS, stained with DAPI, and observed using a confocal microscope. For in vivo studies, 4T1 cells (1 × 10^6) were injected into the third mammary fat pad of female BALB/c mice (6–8 weeks, 20 ± 2 g) (n = 3) on day 0 to establish orthotopic breast tumor models. For investigation of CXCR4 binding, mice on day 14 (tumor volume, ~200 mm^3) were intravenously injected with P-CM1-Cy5 or P-BS-CM1-Cy5 (equivalent Cy5 dose, 5 nmol/mouse, n = 3). Whole-body living imaging at 24, 48, and 72 h post-administration as well as excised tumors at the end point, were captured using the IVIS optical imaging system (IVIS Lumina Series III, PerkinElmer, USA). For the analysis of CM1/CM2 biorecognition in the second step, 4T1 tumor-bearing mice (tumor volume, ~200 mm^3) were intravenously injected with Cy5 labeled P-CM2 (P-CM2-Cy5) alone on day 15, or pre-injected P-BS-CM1 on day 14 followed by intravenous injection of P-CM2-Cy5 on day 15 (equivalent Cy5 dose, 5 nmol/mouse, n = 3). Whole-body living imaging at 24 and 48 h post-P-CM2-Cy5 administration, as well as excised tumors at the end point, were captured using the IVIS optical imaging system. For further investigation, mice (tumor volume, ~200 mm^3) were intravenously injected with P-BS-CM1-Cy5 on day 14 and then P-CM2-Cy3 on day 15 (5 nmol of Cy5 and 5 nmol of Cy3 per mouse). One day later, tumor tissues were collected for frozen sectioning and further observation by confocal microscope.
(§2) Three distinct delivery approaches were implemented in 4T1 tumor-bearing female BALB/c mice (6–8-week, tumor volume~200 mm^3, n = 5 per group). i) Consecutive delivery: Nanothread-1 and nanothread-2 were sequentially administered via intravenously injection with a 24 h time interval. ii) Simultaneous delivery: Nanothread-1 and Nanothread-2 were concurrently administered through two tail veins of one mouse. iii) Post-assembly delivery: Nanothread-1 and Nanothread-2 were pre-mixed before intravenous injection (5 nmol of Cy5 and 5 nmol of Cy3 per mouse). For the tumor accumulation study, whole-body living imaging was conducted at 24, 48, and 72 h post-administration of Cy5-labeled Nanothread. Additionally, excised tumors were imaged at the end point using the IVIS optical imaging system. For the pharmacokinetics study, blood samples were extracted at predetermined time points post-administration of fluorescence-labeled Nanothread, n = 5 per group. The fluorescent intensity in blood samples was measured with a microplate reader at the wavelengths of Cy5 (Ex: 630 nm, Em: 670 nm) and Cy3 (Ex: 530 nm, Em: 570 nm). Pharmacokinetic parameters, including half-life (T1/2z), area under curve (AUC), and mean residence time (MRT), were calculated using DAS 2.0 software.

[2] = Hydrodynamic size / size distribution by dynamic light scattering; format: physicochemical; conditions: Malvern Zetasizer Nano ZS90, mean ± SD
Experimental: as §1
To investigate the coiled-coil assembly, varying CM1-to-CM2 ratios (3:1, 1:1, and 1:3) of P-BS-CM1 and P-CM2 were mixed in 10 mM PBS (pH 7.4) at 25 °C for 10 min. The total polymer concentration was kept constant at 10 mg/mL. Circular dichroism spectra, size distribution, and rheological properties of P-BS-CM1, P-CM2, and their mixture were measured. The surface morphology of P-BS-CM1 and the mixture (P-BS-CM1 + P-CM2) was observed using scanning electron microscopy. Additionally, for the FRET assay, CM1-to-CM2 equimolar of P-BS-CM1-Cy5 and P-CM2-Cy3 were mixed in 10 mM PBS (pH 7.4) at 25 °C for 10 min. Fluorescent spectra of P-BS-CM1-Cy5, P-CM2-Cy3, and the mixture (P-BS-CM1-Cy5+P-CM2-Cy3) were recorded at the Cy3 excitation wavelength of 550 nm.

[3] = Pharmacokinetics upon consecutive, simultaneous and post-assembly delivery; format: in vivo, female BALB/c mice; conditions: for T1/2z: blood fluorescence, mean ± SD, n = 5; for AUC0-t / AUC0-∞ / MRT0-t / MRT0-∞: same
Experimental: as §2

For “P-CM2-Cy5: Cy5 labeled P-CM2 (C(HPMA copolymer)YGGEVSALEKEVSALEKKNSALEKEVSALEKEVSALEK; also: Cy5 label on conjugate, position not given here)”, the ζ-potential (ζ-potential (Zetasizer)) was -8.94±0.45 mV, the “tumor accumulation of Nanothread-2 (Fig. 5b, excised tumors)” value (shortened to “tumor accumulation”) ([1]; P-CM2-Cy5 i.v. 5 nmol Cy5/mouse 24 h after saline or P-BS-CM1, IVIS at end point (48 h), animal 1 of 3) was 1.72 and the “tumor accumulation” value ([1]; P-CM2-Cy5 i.v. 5 nmol Cy5/mouse 24 h after saline or P-BS-CM1, IVIS at end point (48 h), animal 1 of 3, listed as G3) was 0.962. The “tumor accumulation” value ([1]; same, animal 2 of 3) was 1.74, the “tumor accumulation” value ([1]; same, animal 2 of 3, listed as G3) was 0.787 and the “tumor accumulation” value ([1]; same, animal 3 of 3) was 1.49. For the same molecule, the “tumor accumulation” value ([1]; same, animal 3 of 3, listed as G3) was 0.495, the Size [2] was 19.8±0.7 nm and the T1/2z ([3]; Consecutive delivery (24 h interval) with unlabeled partner nanothread, i.v., 4T1 tumor-bearing mice, 5 nmol Cy5/mouse, DAS 2.0) was 20.232 ± 6.5 h. For the same molecule, the AUC0-t ([3]; Consecutive delivery) was 2807.529 ± 561.373 ng·h/mL, the “AUC0-∞” value ([3]; Consecutive delivery) was 2999.46 ± 668.451 ng·h/mL and the MRT0-t ([3]; Consecutive delivery) was 15.196 ± 1.358 h. The “MRT0-∞” value ([3]; Consecutive delivery) was 21.117 ± 3.236 h, the T1/2z ([3]; Post-assembly delivery (pre-mixed with unlabeled partner nanothread before i.v. injection)) was 14.142 ± 3.54 h and the AUC0-t ([3]; Post-assembly delivery) was 1356.51 ± 241.624 ng·h/mL. The “AUC0-∞” value ([3]; Post-assembly delivery) was 1374.981 ± 237.509 ng·h/mL, the MRT0-t ([3]; Post-assembly delivery) was 8.789 ± 0.154 h and the “MRT0-∞” value ([3]; Post-assembly delivery) was 10.384 ± 0.829 h. The T1/2z ([3]; Simultaneous delivery (two tail veins, 0 h) with unlabeled partner nanothread, i.v.) was 17.583 ± 4.307 h, the AUC0-t ([3]; Simultaneous delivery) was 1339.808 ± 201.879 ng·h/mL and the “AUC0-∞” value ([3]; Simultaneous delivery) was 1385.53 ± 238.655 ng·h/mL. The MRT0-t ([3]; Simultaneous delivery) was 9.919 ± 0.611 h and the “MRT0-∞” value ([3]; Simultaneous delivery) was 12.694 ± 2.736 h.

“P-CM2: HPMA copolymer-CM2 conjugate, ~12 CM2 grafts per polymer (C(HPMA copolymer)YGGEVSALEKEVSALEKKNSALEKEVSALEKEVSALEK; also: CM2 N-terminal cysteine joined to a maleimide of the HPMA copolymer backbone, ~12 per polymer)” showed a ζ-potential (ζ-potential (Zetasizer)) of -8.73±0.34 mV and a Size [2] of 19.2±0.7 nm.

For “P-PS-CM2: HPMA backbone grafted with CM2 and chlorin e6 photosensitizer (C(HPMA copolymer)YGGEVSALEKEVSALEKKNSALEKEVSALEKEVSALEK; also: chlorin e6 photosensitizer on polymer)”, the ζ-potential (ζ-potential (Zetasizer)) was -11.21±1.24 mV and the Size [2] was 25.8±1.2 nm.

B1: P-BS-CM1: linear HPMA polymer backbone grafted with CXCR4 binding sequence (BS) and coiled motif CM1 (conjugate)
chain 1: LGASWHRPDKCCLGYQKRPLPA
chain 2: C(HPMA copolymer)YGGKVSALKEKVSALKEEVSANKEKVSALKEKVSALKE
modifications: not fully specified (some residues); also: BS cysteines (Cys11, Cys12) joined to maleimides of the HPMA copolymer backbone, ~6 per polymer, CM1 N-terminal cysteine joined to a maleimide of the HPMA copolymer backbone, ~4 per polymer
Molecule B1 has a ζ-potential (ζ-potential (Zetasizer)) of -5.67±0.79 mV and a Size [2] of 17.5±2.1 nm.
